Literature values as cited in PMC4540356 (Thrombosis and haemostasis, 2010).

System: endothelial cells
Conditions: via activation of ERK1/2 and Akt, ref [39]

B1: nicotinomide phosphoribosyltransferase/pre-B cell colony-enhancing factor (protein, UniProt P43490 1-491, looked up)
Nicotinamide …: MNPAAEAEFNILLATDSYKVTHYKQYPPNTSKVYSYFECREKKTENSKLRKVKYEETVFYGLQYILNKYLKGKVVTKEKIQEAKDVYKEHFQDDVFNEKGWNYILEKYDGHLPIEIKAVPEGFVIPRGNVLFTVENTDPECYWLTNWIETILVQSWYPITVATNSREQKKILAKYLLETSGNLDGLEYKLHDFGYRGVSSQETAGIGASAHLVNFKGTDTVAGLALIKKYYGTKDPVPGYSVPAAEHSTITAWGKDHEKDAFEHIVTQFSSVPVSVVSDSYDIYNACEKIWGEDLRHLIVSRSTQAPLIIRPDSGNPLDTVLKVLEILGKKFPVTENSKGYKLLPPYLRVIQGDGVDINTLQEIVEGMKQKMWSIENIAFGSGGGLLQKLTRDLLNCSFKCSYVVTNGLGINVFKDPVADPNKRSKKGRLSLHRTPAGNFVTLEEGKGDLEEYGQDLLHTVFKNGKVTKSYSFDEIRKNAQLNIELEAAHH
In the case of B1, the “peNOS and NO induction in endothelial cells” value is listed as “induce peNOS and NO in endothelial cells”.
